Data from the supplement of paper PMC9170038.

Tests used:
MS2 coat protein [1] = assay: apparent KD of MS2 coat protein; designed switch direction (-1 OFF switch, 1 ON switch): 1; higher = weaker reporter binding; details: Eterna round: R95
Summary of the method: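 Each step of the titration lasted 0.8–1.5 h at the lowest concentration and 10–20 min at the highest. The protein, SNAP-549-labelled MS2 coat protein, went from 0.7 or 1.5 nM doubling to 3 µM over RNA switches transcribed on Illumina chips by stalled E. coli RNA polymerase. Normalised cluster fluorescence was curve-fitted, and the per-design median over clusters is given as apparent KD.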

MS2 coat protein [2] = assay: apparent KD of MS2 coat protein; higher = weaker reporter binding; details: Eterna round: R107
Summary of the method: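 Designed RNA switches were transcribed on-chip from Illumina sequencing clusters and titrated with SNAP-549-labelled MS2 coat protein in twofold steps from 0.7 or 1.5 nM up to 3 µM. Each step lasted 0.8–1.5 h at first and 10–20 min by the end, in 100 mM Tris-HCl pH 7.5, 80 mM KCl and 4 mM MgCl2, without or with constant ligand. Apparent KD is the median, for each design, of fits to normalised cluster binding curves.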

[3] = input ligand: theophylline 20 uM
[4] = input ligand: theophylline 2 mM
[5] = input ligand: tryptophan 2.4 mM

| Sequence | apparent KD of MS2 coat protein (MS2 coat protein [1]; input ligand: FMN 200 uM) | apparent KD of MS2 coat protein (MS2 coat protein [1]; input ligand: microRNA oligo, concentration not stated) | apparent KD of MS2 coat protein (MS2 coat protein [1]; input ligand: none) | apparent KD of MS2 coat protein (MS2 coat protein [2]; input ligand: arginine 13.2 mM) | apparent KD of MS2 coat protein (MS2 coat protein [2]; input ligand: none) | apparent KD of MS2 coat protein (MS2 coat protein [2]; [3]) | apparent KD of MS2 coat protein (MS2 coat protein [2]; [4]) | apparent KD of MS2 coat protein (MS2 coat protein [2]; [5]) |
| --- | --- | --- | --- | --- | --- | --- | --- | --- |
| CAGCGCUGUCGAGAGGAUAUGCGGUGAUGGACAUGAGGAUCACCCAUGUUAGCGACAGCAUCACGGCAGAAGGCUCUACCGCUGC [Soteed Omei mod 18] (puzzle: Same State 2) | 19.3 nM | 18.8 nM | 30.3 nM |  |  |  |  |  |
| UGUGUCGUCUGAAGGAGCGGCUCUUGAUCCUCGUGGGACAUGAGGAUCACCCAUGUCUCGAGCCAGGUAGGUCGCAGGCGGCACA [#27 Exclusion - Arginine B] |  |  |  | 31.3 nM | 26 nM | 32.6 nM | 23.8 nM | 20.7 nM |
| GAUGAACUAUAUGAUACCAGACAACAUGAGGAUCACCCAUGUGAAUGUCGUCCUCUGCCUGUCCCUUGGCAGCGUAUAGUUUAUC [XTheo B #15] |  |  |  | 29.3 nM |  | 67.6 nM |  | 20.3 nM |
| GCACAAGAUGGAAGGAGCGCUGGUAAAGGUCACAUGAGGAUCACCCAUGUGCUCCUUGCCGAGCAGGUAGGUCGCCAUCUUGUGC [SSAB NP+V+V2 #3] |  |  |  | 14.1 nM | 11.7 nM | 16.4 nM | 13.3 nM | 11.7 nM |
| GACAUGAGGAUAGAUACCAGCGACAUGAGGAUCACAUGAGGAUCACCCAUGUGUAGUAUACGCCCUUGGCAGCUAACAUGAGGAU [Same State Theophylline B 3] |  |  |  | 59.5 nM |  | 129 nM |  | 68.1 nM |
| UAUCGUCAGACGGCCGCCACUAGAACAUGAGGAUCACCCAUGUAAGUGGCCGGUCUCCUCAUGACUAGGACCGGGUCUGACGAAU [(Trp1)-(Ms2)-(T)'-(M)'-(Trp2)_Design18] |  |  |  | 9.69 nM |  | 14.1 nM | 10.9 nM |  |
| GGAUAGGACACGGCCGCCACUGCGCUAGGAUACUAGAACAUUUCCUCACAUGAGGAUCACCCAUGUAGGACCGGGUGUCCUAUCG |  |  |  | 34 nM |  | 76.7 nM | 60.4 nM |  |
| GGGUCGGGCGCGGCCGCCACUGCGGUGAUGUGACAUGAGGAUCACCCAUGUUGUCAUGUGGCACAUAGGACCGGGCGCCCGGCCC [#1 Exclusion - Tryptophan B Attempt #8 (HarryS)] |  |  |  | 34.7 nM | 29.1 nM | 46.8 nM | 34.7 nM | 29.1 nM |
| ACAUGAGGAUCACCCAUGUUCCUCGCCGAUACCAGUGAAGAAGUACGCCCUUGGCAGCGGAAAGAGUAUUUUGGAGAUGAGGUAC [6.Y] |  |  |  | 57 nM |  | 94.3 nM |  | 88.3 nM |
| GUAGCGACGACGGCCGCCACUCACAGGUGAGGGUAGACCAACCUUCACAUGAGGAUCACCCAUGUGAGGACCGGGUUGUCGCUAC [#12 Exclusion Tryptophan B] |  |  |  | 57.5 nM | 79 nM | 109 nM | 81.4 nM | 168 nM |
| UCGUGUCUAUUGGUUUAGCUUUAAUCGUUACGAGGACCGGUACGGCCGCCACUCGAUUUAACAUGAGGAUCACCCAUGUACUCUC [JR_ExcTryptoA_Sub012] |  |  |  | 17.5 nM |  | 26.6 nM | 21.4 nM |  |
| UGUAUGGACUGAAGGAGCGGGAAAAUAACUUGAGGAUCACCCAGGUAAAAGGCGAAAGCCACCCAGGUAGGUCGCAGUCCAUACU |  |  |  | 21.5 nM | 26.2 nM | 30.1 nM | 22.4 nM | 25.9 nM |
| ACCUGUACGAAAAGUGCAGGACACGGAAUACGAGGACCGGUACGGCCGCCACUCGGAACCUGAGGAUCACCCUGGUAAAACCGUG [TrypAS 13 #AlternativeMS2 #Zipper #StaticStem] |  |  |  | 19.9 nM | 17.8 nM | 22.6 nM | 24 nM | 19.5 nM |
| UAUAUAUAUAUGGAUACCAGCAGAGAAAACGUUUAUCCUAACAUGAGGAUCACCCAUGUAUGCCCUUGGCAGCUGUAUAUAUAUA [8.G] |  |  |  | 21.4 nM |  | 29.5 nM |  | 24.7 nM |
| GGAUAGGACACGGCCGCCACUAGCUAGGAUACUAGCAACAUUUCCUCGCUUGAGGAUCACCCAAGUAGGACCGGGUGUCCUAUCG |  |  |  | 302 nM | 560 nM | 446 nM | 476 nM | 482 nM |
| UGUGCAGGAUGUGUAAAAGGUCUUGGGCAUCGAGGACCGGUACGGCCGCCACUCGGCUGUACAUGAGGAUCACCCAUGUCAGGGU [#1 Same State - Tryptophan A Attempt #21 (HarryS)] |  |  |  | 30.5 nM | 220 nM | 554 nM | 694 nM | 737 nM |
| CUAUAUUAUAGAAGGAGCGUCGAAAAUGGGUAAACAUGAGGAUCACCCAUGUAAAGGGAACGACAGGUAGGUCGCUAUAAUAUAG [AstromonsSSArgB#13] |  |  |  | 117 nM | 220 nM | 201 nM | 252 nM | 195 nM |
